The record followed here is paper PMC6640692, “Canine CD117-Specific Antibodies with Diverse Binding Properties Isolated from a Phage Display Library Using Cell-Based Biopanning” (Antibodies, 2019).

The assay has as its target T1, recombinant canine CD117-ECD-human-Fc fused protein (canine, UniProt O97799 28-527).
T1 construct: canine CD117 (c-Kit) extracellular domain, amplified by PCR from a GeneArt-synthesized CD117 template (NP_001003181); The forward primer begins at the ATG start codon (MRGARG), so the secretion signal appears to be in the construct; Dimer through disulfide linkage in the hFc domain (non-reducing SDS-PAGE); also called CD117-hFc; ECD-CD117-hFc; source: CHO-S cells, transient transfection, purified …
The experiment in a line: ELISA; competitive ELISA: plate coated with 1 ug/mL canine CD117-hFc; 50 ng/mL canine SCF-His pre-mixed with serially diluted mAbs (from 40 ug/mL) in 2% MPBS, RT 1 h; bound SCF detected with anti-His HRP. As to conditions: both partners purified.

T1 sequence (O97799 28-527): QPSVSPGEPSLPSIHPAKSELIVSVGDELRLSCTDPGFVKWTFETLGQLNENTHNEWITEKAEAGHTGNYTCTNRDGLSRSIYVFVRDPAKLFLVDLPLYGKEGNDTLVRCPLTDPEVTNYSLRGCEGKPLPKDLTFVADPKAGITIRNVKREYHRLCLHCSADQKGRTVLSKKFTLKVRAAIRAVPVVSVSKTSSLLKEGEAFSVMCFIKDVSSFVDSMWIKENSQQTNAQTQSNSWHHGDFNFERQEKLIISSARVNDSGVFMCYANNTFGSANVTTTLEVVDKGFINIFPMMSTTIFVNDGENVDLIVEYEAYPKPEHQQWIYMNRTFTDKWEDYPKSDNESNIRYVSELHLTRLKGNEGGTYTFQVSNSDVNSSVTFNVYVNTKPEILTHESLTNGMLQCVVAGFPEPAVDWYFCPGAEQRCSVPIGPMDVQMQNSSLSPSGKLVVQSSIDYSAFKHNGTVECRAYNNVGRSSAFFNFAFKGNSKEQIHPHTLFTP

B1: recombinant canine stem cell factor (SCF)-His (ligand, UniProt Q06220 26-191, looked up)
chain: KGICGKRVTDDVKDVTKLVANLPKDYKIALKYVPGMDVLPSHCWISVMVEQLSVSLTDLLDKFSNISEGLSNYSIIDKLVKIVDDLVECTEGYSFENVKKAPKSPELRLFTPEEFFRIFNRSIDAFKDLETVASKSSECVVSSTLSPDKDSRVSVTKPFMLPPVAA
notes: signal peptide in the construct; canine SCF, secretion signal and the soluble part of the extracellular domain, NP_001012753.1 residues 1 to 191; also called canine SCF; SCF-His-tag; source: CHO-S cells, transient transfection, purified from supernatant (HisTrap excel IMAC)
Turning to B1, the binding result is “binds”.
